Measured values: patent US20040096894A1 (published 2004)
Square brackets hold non-standard residues; d marks the D form. Ends that are not written are not given here. sY = N[C@@H](Cc1ccc(OS(=O)(=O)O)cc1)C(=O)O; pGlu = O=C1CC[C@@H](C(=O)O)N1

T1: PSGL-1 19ek peptide sulfopeptide-1 (SP-1) (human, UniProt Q14242 42-60, tyrosine sulfated; no carbohydrate; biotinylated at Lys residues)
T1 construct: domain: N-terminal 19 amino acids of PSGL-1; Form of SGP-3 containing no carbohydrate
T1 sequence (Q14242 42-60, looked up): QATEYEYLDYDFLPETEPP

T2: PSGL-1 19ek peptide glycopeptide-1 (GP-1) (human, UniProt Q14242 42-60, no tyrosine sulfates; SLe^X-containing core2 O-glycan at Thr-16; biotinylated at Lys residues)
T2 construct: domain: N-terminal 19 amino acids of PSGL-1; Form of SGP-3 containing no tyrosine sulfates
T2 sequence (Q14242 42-60, looked up): QATEYEYLDYDFLPETEPP

T3: PSGL-1 19ek peptide SGP-2 (disulfated form of SGP-3) (human, UniProt Q14242 42-60, two tyrosine sulfates (positions not resolved; every permutation present); SLe^X-containing core2 O-glycan at Thr-16; biotinylated at Lys residues)
T3 construct: domain: N-terminal 19 amino acids of PSGL-1; Same polypeptide as SGP-3, less modified; also called disulfated species
T3 sequence (Q14242 42-60, looked up): QATEYEYLDYDFLPETEPP

T4: PSGL-1 19ek peptide SGP-1 (monosulfated form of SGP-3) (human, UniProt Q14242 42-60, one tyrosine sulfate (position not resolved; every permutation present); SLe^X-containing core2 O-glycan at Thr-16; biotinylated at Lys residues)
T4 construct: domain: N-terminal 19 amino acids of PSGL-1; Same polypeptide as SGP-3, less modified; also called monosulfated species
T4 sequence (Q14242 42-60, looked up): QATEYEYLDYDFLPETEPP

B1: P-selectin lectin and EGF-like (LE) domains, monomeric (receptor, human, UniProt P16109 42-198, looked up)
chain: WTYHYSTKAYSWNISRKYCQNRYTDLVAIQNKNEIDYLNKVLPYYSSYYWIGIRKNNKTWTWVGTKKALTNEAENWADNEPNNKRNNEDCVEIYIKSPSAPGKWNDEHCLKKKHALCYTASCQDMSCSKQGECLETIGNYTCSCYPGFYGPECEYVR
modifications: three N-linked glycans when expressed in CHO cells; glycosylated form used for BIAcore, N-glycanase-deglycosylated form used for crystals
notes: domain: lectin and EGF-like (LE) domains; also called P-LE; P-selectin lectin/EGF domains

Tests used:
[1] = biological target: B1; assay: BIAcore SPR, equilibrium; solution-phase P-LE over immobilized biotinylated SGP-3, 25 °C
Description: (§1) Second row, left-to-right: SGP-1 (FIGS. 1C-4), GP-1 (FIGS. 1C-5) and SP-1 (FIGS. 1C-6). […] KDs and standard deviations (shown) were determined by line-fitting of specific binding curves using BIAevaluation software (BIAcore) and are the products of three-to-ten separate experiments.
(§2) Surface plasmon resonance was performed on BIAcore 2000 and 3000 instruments at 25° C. using streptavidin-coated sensor chips (BIAcore) and HBS-P buffer (BIAcore; 10 mM HEPES (pH 7.4), 150 mM NaCl, and 0.005% polysorbate 20 (v/v)) adjusted to 1 mM each CaCl₂ and MgCl₂. The 19ek peptides and sPSGL, a fucosyltransferase-VII modified version of the entire dimeric extracellular domain of PSGL-1 (Croce et al., 1998), were biotinylated at Lys residues with Sulfo-NHS-LC-Biotin (Pierce). Following biotinylation, sPSGL was reacted with immobilized P-selectin in order to isolate functional material (Sako et al., 1995). […] Biotinylated reagents were coated onto sensor chips using HBS-P buffer.

[2] = biological target: T1, PSGL-1 19ek peptide sulfopeptide-1 …; assay: BIAcore SPR, equilibrium; solution-phase P-LE over immobilized biotinylated SP-1
Description: as §1, §2

[3] = biological target: T2, PSGL-1 19ek peptide glycopeptide-1 …; assay: BIAcore SPR, equilibrium; solution-phase P-LE over immobilized biotinylated GP-1
Description: as §1, §2

[4] = biological target: T3, PSGL-1 19ek peptide SGP-2 (disulfated …); assay: BIAcore SPR, equilibrium; solution-phase P-LE over immobilized biotinylated SGP-2
Description: as §1, §2

[5] = biological target: T4, PSGL-1 19ek peptide SGP-1 (monosulfated …); assay: BIAcore SPR, equilibrium; solution-phase P-LE over immobilized biotinylated SGP-1
Description: as §1, §2

| Binder | Kd [1] | Kd [2] | Kd [3] | Kd [4] | Kd [5] |
| --- | --- | --- | --- | --- | --- |
| [pGlu]ATE[sY]E[sY]LD[sY]DFLPET(SLeX core2 O‑glycan)EPP (also: biotinylated at Lys residues when immobilized, site not placed) [PSGL-1 19ek peptide sulfoglycopeptide-3 (SGP-3)] | 0.778 µM |  |  |  |  |
| B1 |  | ~113 µM | ~31.1 µM | 2.88 µM | 12.3 µM |
